Patent US20090089899A1, “Method for Enhancing Drought Stress Tolerance in Plants by Active AREB1” (priority 2005, published 2009)

B1: full-length AREB1: full-length Arabidopsis thaliana AREB1 protein (SEQ ID NO: 2), expressed from full-length cDNA under 35S promoter (protein, listed as Arabidopsis thaliana)
chain: MDGSMNLGNEPPGDGGGGGGLTRQGSIYSLTFDEFQSSVGKDFGSMNMDELLKNIWSAEETQAMASGVVPVLGGGQEGLQLQRQGSLTLPRTLSQKTVDQVWKDLSKVGSSGVGGSNLSQVAQAQSQSQSQRQQTLGEVTLEEFLVRAGVVREEAQVAARAQIAENNKGGYFGNDANTGFSVEFQQPSPRVVAAGVMGNLGAETANSLQVQGSSLPLNVNGARTTYQQSQQQQPIMPKQPGFGYGTQMGQLNSPGIRGGGLVGLGDQSLTNNVGFVQGASAAIPGALGVGAVSPVTPLSSEGIGKSNGDSSSLSPSPYMFNGGVRGRKSGTVEKVVERRQRRMIKNRESAARSRARKQAYTVELEAEVAKLKEENDELQRKQARIMEMQKNQETEMRNLLQGGPKKKLRRTESGPW

What was measured:
RD29B gene = test: RNA gel blot (Northern) analysis of downstream gene RD29B in transformed plants; assay type: in vivo, Arabidopsis thaliana
Procedure: Extraction of total RNA from plant bodies and RNA gel blot analysis using the total RNA were performed according to the method of Satoh et al (2004, Plant Cell Physiol. 45, 309-317) using a Shakemaster crusher (Bio Medical Science, Tokyo, Japan). Furthermore, probes for RNA gel blot analysis were prepared according to the method of Maruyama et al (2004, Plant J. 38, 982-993).
To prepare a pBE2113Not-AREB1 plasmid, the entire coding region of AREB1 was amplified by PCR using a primer with a Not I linker and then the resultant was introduced into pBE2113Not (Liu et al., 1998, Plant Cell 10, 1391-1406) in the sense orientation. pBE2113Not-AREB1ΔQT was prepared by amplifying the coding region of AREB1ΔQT by PCR using primers with Xba I and BamH I linkers and then introducing the resultant into the Xba I/BamH I site of pBE2113Not in the sense orientation.
To produce transformed plants with 35S-AREB1 and 35S-AREB1ΔQT, transformation vectors, pBE2113Not-AREB1 and pBE2113Not-AREB1ΔQT, were introduced into Arabidopsis thaliana (Columbia) by a suction-infiltration method (Osakabe et al., 2005, Plant Cell 17, 1105-1119) using the Agrobacterium tumefaciens C58 strain.
Here, it was examined whether or not overexpression of ABRE1ΔQT in Arabidopsis thaliana would activate the transcription of a downstream gene such as RD29B in the absence of external ABA. […]

RD29B-GUS reporter gene = test: Transient expression (transactivation) analysis with RD29B-GUS reporter in protoplasts of Arabidopsis thaliana T87 cells; assay type: cell-based; details: in the presence of 50 μM abscisic acid (ABA)
Procedure: Analysis of transient expression was performed using protoplasts derived from Arabidopsis thaliana T87 cells according to a slightly modified version of the method of Fujita et al (2004, Plant J. 39, 863-876) and the method of Satoh et al (2004, Plant Cell Physiol. 45, 309-317). Protoplast isolation and gene introduction were all performed at room temperature (25° C. to 28° C.). Protoplasts in which the gene had been introduced were allowed to stand for 16 to 20 hours at 22° C. in the dark. An enzyme solution [0.4 M mannitol, 1.5% (w/v) cellulase “Onozuka” R-10 (Yakult, Tokyo, Japan), 0.3% (w/v) macerozyme R-10 (Yakult), 0.1% (w/v) bovine serum albumin, 10 mM CaCl2, 20 mM KCl, and 20 mM MES, pH 5.7] was prepared according to the method of Sheen (2002) (http://genetics.mgh.harvard.edu/sheenweb/).
A DNA fragment containing a portion or the whole of AREB1 cDNA was amplified by PCR and then the product was cloned into the Not I site of an expression vector pBI35SΩ (Abe et al., 1997, Plant Cell 9, 1859-1868). Thus, a plasmid having an AREB1 bZIP DNA binding domain was prepared. The plasmid was then used for an experiment for the analysis of transient expression. To remove a 640-base-pair fragment that was partially cleaved with EcoT14I from the pBI35SΩ-AREB1 plasmid, self-binding ligase reaction was performed after partial cleavage with EcoT14I. […]

Molecule	expression of the downstream gene RD29B (Northern analysis) (RD29B gene; wild-type (WT) and vector control plants, 50 μM ABA, 7 hours)	expression of the downstream RD29B gene (Northern analysis) (RD29B gene; 2-week-old seedlings of transformed plants, in the absence of ABA)	GUS activity (RD29B-GUS reporter) (RD29B-GUS reporter gene)
CC1=CC(=O)CC(C)(C)[C@@]1(O)/C=C/C(C)=C\C(=O)O [ABA, abscisic acid, reference compound]	could be confirmed only in the presence of 50 μM ABA		
B1		not observed	significant enhancement in GUS activity
